Results as given in patent publication US20230220095A1 (ALETA BIOTHERAPEUTICS, published 2023).
Where “and” joins values, the source holds several entries; their conditions need not be identical. Equal values may be shown once.

How the values were obtained:
[1] = target: T1, GPRC5D expressed on transfected HEK293 / 293T cells (UniProt Q9NZD1 1-345, limits assumed); assay: flow cytometry, titration of fusion protein supernatant on GPRC5D-transfected HEK293 cells, anti-His detection, % Binding
T1 construct: whole, on cells

[2] = target: T1, GPRC5D expressed on transfected HEK293 …; assay: flow cytometry, titration of fusion protein supernatant on GPRC5D-transfected HEK293 cells, anti-BCMA detection, % Binding
[3] = target: T2, CD38 on Daudi cells (human, UniProt P28907 1-300); assay: flow cytometry, titration of fusion protein supernatant on Daudi cells (CD38), a-BCMA-PE detection, % Binding
T2 construct: whole, on cells; Endogenous CD38 of Daudi cells
Description: (§1) Daudi cells were obtained from ATCC and cultured in RPMI containing 10% FCS. They were stained for BCMA using anti-BCMA-PE labeled antibody (BioLegend, #357504) and for CD38 using anti-CD38-PE labeled antibody (BioLegend, #356604), or stained with BCMA-containing fusion proteins as described herein. The cells were incubated with antibody or supernatant from A493 or A494 producing cells as follows. The Daudi cells were blocked with human Fc block (BD Biosciences, #BDB564129) for 10 minutes, washed and then diluted to 5×10e5 cells per 50 µl. For each sample, 50 µl of cells was aliquoted per well. For the direct stains, 5 µl of antibody in 50 µl was incubated with the cells for 30 minutes at 4° C. After washing with FACS buffer (FB: PBS, 1% BSA, 0.1% sodium azide), the cells were fixed with a final concentration of 2% paraformaldehyde in FB. For the BCMA fusion protein binding, 50 µl of A493 or A494 supernatant or 3x serial dilution of the supernatant in FB, was added and incubated for 30 minutes at 4° C. The cells were washed 2 times with FB and then stained with anti-His-PE antibody (R&D systems, #ICO5OP) or anti-BCMA-PE antibody (BioLegend, #357504) for 30 minutes at 4° C., the cells were pelleted and washed 2 times in FB and then fixed as above. The samples were analyzed on a BD Accuri 6 flow cytometer and analyzed using BD Accuri 6 software.

[4] = target: T2, CD38 on Daudi cells; assay: flow cytometry, titration of fusion protein supernatant on Daudi cells (CD38), a-His-PE detection, % Binding
Description: as §1

[5] = target: T1, GPRC5D expressed on transfected HEK293 …; assay: binding of HEK293 supernatants to GPRC5D-expressing HEK293 cells

T1 sequence (Q9NZD1 whole entry, the tested form may be a part): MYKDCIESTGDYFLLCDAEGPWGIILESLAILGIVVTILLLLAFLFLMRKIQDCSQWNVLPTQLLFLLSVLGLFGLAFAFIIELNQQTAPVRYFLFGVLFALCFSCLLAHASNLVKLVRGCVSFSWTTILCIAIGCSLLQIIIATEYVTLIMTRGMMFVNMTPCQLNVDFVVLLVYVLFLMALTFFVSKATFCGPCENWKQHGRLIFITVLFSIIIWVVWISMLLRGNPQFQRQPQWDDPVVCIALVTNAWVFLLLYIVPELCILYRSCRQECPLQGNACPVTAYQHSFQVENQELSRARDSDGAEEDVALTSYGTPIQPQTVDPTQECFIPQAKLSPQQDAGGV

| Binder | EC50 [1] | EC50 [2] | binding result [5] | other results |
| --- | --- | --- | --- | --- |
| anti-GPRC5D scFv-BCMA ECD-His fusion protein, construct 538 (other, scFv of construct 524 - G4Sx3 linker - BCMA ECD - His; also called A538; bridging protein #538) SSELTQDPAVSVALGQTVRITCQGDSLRSYYASWYQQKPGQAPVLVIYGKNNRPSGIPDRFSGSSSGNTASLTITGAQAEDEADYYCNSRDSSGNPPVVFGGGTKLTVLGSRGGGGSGGGGSGGGGSLEMAQVQLVESGGGLVHPGGSLRLSCAASGFTFRSHSMNWVRQAPGKGLEWVSSISSDSTYTYYADSVKGRFTISRDNAKNSLYLQMNSLRAEDTAVYYCARSGGQWKYYDYWGQGTLVTVSSGGGGSGGGGSGGGGSMLQMAGQCSQNEYFDSLLHACIPCQLRCSSNTPPLTCQRYCNASVTNSVKGTNAHHHHHH | 0.00608 µg/mL and 0.182 nM | 0.00225 µg/mL and 0.067 nM | – | – |
| BCMA-anti-CD38 fusion protein, construct #493 (BCMA ECD N-terminal to the anti-CD38 scFv, C-terminal His tag) (other, also called A493; N-terminal construct) MLQMAGQCSQNEYFDSLLHACIPCQLRCSSNTPPLTCQRYCNASVTNSVKGTNAGGGGSGGGGSGGGGSGGGGSDIQMTQSPSSLSASVGDRVTITCRASQGIRSWLAWYQQKPEKAPKSLIYAASSLQSGVPSRFSGSGSGTDFTLTISSLQPEDFATYYCQQYNSYPLTFGGGTKVEIKGGGGSGGGGSGGGGSGGGGSQVQLVQSGAEVKKPGSSVKVSCKAFGGTFSSYAISWVRQAPGQGLEWMGRIIRFLGIANYAQKFQGRVTLIADKSTNTAYMELSSLRSEDTAVYYCAGEPGERDPDAVDIWGQGTMVTVSSHHHHHH | – | – | – | EC50 [3]: 0.0056 µg/mL and 0.165 nM; EC50 [4]: 0.00218 µg/mL and 0.0642 nM |
| anti-GPRC5D scFv, construct 522 (scFv, VL-G4Sx3-VH-His; Tested as HEK293 supernatant; also called A522) scFv: QSVLTQPASVSGSPGQSLTISCTGTSNDVGAYKYVSWYQQYPGKAPKLILYDVFKRPSGVSNRFSGSKSDNTASLTISGLQAEDEADYYCFSLTSSNTYVFGTGTKVTVLGSRGGGGSGGGGSGGGGSLEMAQMQLVQSGAEVKKPGASVKVSCKASGYTFNRYAITWVRQAPGQGLEWMGWISAYNGNSHYAQKLQGRVTMTTDTSTGTAYMELRRLRSDDTAVYYCARMAYDSWGQGTLVTVSSHHHHHH | – | – | binds | – |
| anti-GPRC5D scFv-BCMA ECD-His fusion protein, construct 537 (other, scFv of construct 523 - linker - BCMA ECD - His; Tested as HEK supernatant; also called A537; anti-GPRC5D-BCMA fusion protein) QSVLTQPPSASGTPGQRVTISCSGSRSNVGGNYVFWYQQVPGATPKLLIYRSNQRPSGVPDRFAGSKSGSSASLAISGLRSEDEADYYCATWDDSLSGFVFGTGTKVTVLGSRGGGGSGGGGSGGGGSLEMAEVQLVESGGGLVKPGGSLRLSCAASGFTFSDYYMSWIRQAPGKGLEWVSYISSSGSTIYYADSVKGRFTISRDNAKNSLYLQMNSLRAEDTAVYYCARGYGKAYDQWGQGTLVTVSSGGGGSGGSMLQMAGQCSQNEYFDSLLHACIPCQLRCSSNTPPLTCQRYCNASVTNSVKGTNAHHHHHH | 0.0156 µg/mL and 0.469 nM | 0.00553 µg/mL and 0.166 nM | – | – |
| BCMA-anti-CD38 fusion protein, construct #494 (BCMA ECD C-terminal to the anti-CD38 scFv, C-terminal His tag) (other, also called A494) DIQMTQSPSSLSASVGDRVTITCRASQGIRSWLAWYQQKPEKAPKSLIYAASSLQSGVPSRFSGSGSGTDFTLTISSLQPEDFATYYCQQYNSYPLTFGGGTKVEIKGGGGSGGGGSGGGGSGGGGSQVQLVQSGAEVKKPGSSVKVSCKAFGGTFSSYAISWVRQAPGQGLEWMGRIIRFLGIANYAQKFQGRVTLIADKSTNTAYMELSSLRSEDTAVYYCAGEPGERDPDAVDIWGQGTMVTVSSGGGGSGGGGSGGGGSGGGGSMLQMAGQCSQNEYFDSLLHACIPCQLRCSSNTPPLTCQRYCNASVTNSVKGTNAHHHHHH | – | – | – | EC50 [3]: 0.0123 µg/mL and 0.364 nM; EC50 [4]: 0.00315 µg/mL and 0.093 nM |
| anti-GPRC5D scFv, construct 525 (scFv, VL-G4Sx3-VH-His; Tested as HEK293 supernatant; also called A525) scFv: QSVVTQPPSMSAAPGQQVTISCSGGNSNIERNYVSWYLQLPGTAPKLVIFDNDRRPSGIPDRFSGSKSGTSATLGITGLQTGDEADYYCGTWDSSLRGWVFGGGTKLTVLGSRGGGGSGGGGSGGGGSLEMAEVQLVESGGGLIQPGGSLRLSCAASGFTFSNYAMNWVRQAPGKGLEWVSTINGRGSSTIYADSVKGRFTISRDNSKNTLYLQMNSLRAEDTATYYCARYISRGLGDSWGQGTLVTVSSHHHHHH | – | – | binds | – |
| anti-GPRC5D scFv, construct 523 (scFv, VL-G4Sx3-VH-His; Tested as HEK293 supernatant; also called A523) scFv: QSVLTQPPSASGTPGQRVTISCSGSRSNVGGNYVFWYQQVPGATPKLLIYRSNQRPSGVPDRFAGSKSGSSASLAISGLRSEDEADYYCATWDDSLSGFVFGTGTKVTVLGSRGGGGSGGGGSGGGGSLEMAEVQLVESGGGLVKPGGSLRLSCAASGFTFSDYYMSWIRQAPGKGLEWVSYISSSGSTIYYADSVKGRFTISRDNAKNSLYLQMNSLRAEDTAVYYCARGYGKAYDQWGQGTLVTVSSHHHHHH | – | – | binds | – |
| anti-GPRC5D scFv-BCMA ECD-His fusion protein, construct 536 (other, scFv of construct 522 - linker - BCMA ECD - His; Tested as HEK supernatant; also called A536; anti-GPRC5D-BCMA fusion protein) QSVLTQPASVSGSPGQSLTISCTGTSNDVGAYKYVSWYQQYPGKAPKLILYDVFKRPSGVSNRFSGSKSDNTASLTISGLQAEDEADYYCFSLTSSNTYVFGTGTKVTVLGSRGGGGSGGGGSGGGGSLEMAQMQLVQSGAEVKKPGASVKVSCKASGYTFNRYAITWVRQAPGQGLEWMGWISAYNGNSHYAQKLQGRVTMTTDTSTGTAYMELRRLRSDDTAVYYCARMAYDSWGQGTLVTVSSGGGGSGGGGSMLQMAGQCSQNEYFDSLLHACIPCQLRCSSNTPPLTCQRYCNASVTNSVKGTNAHHHHHH | 0.86 nM and 0.0287 µg/mL | 0.00509 µg/mL and 0.152 nM | – | – |
| anti-GPRC5D scFv, construct 524 (scFv, VL-G4Sx3-VH-His; Tested as HEK293 supernatant; also called A524) scFv: SSELTQDPAVSVALGQTVRITCQGDSLRSYYASWYQQKPGQAPVLVIYGKNNRPSGIPDRFSGSSSGNTASLTITGAQAEDEADYYCNSRDSSGNPPVVFGGGTKLTVLGSRGGGGSGGGGSGGGGSLEMAQVQLVESGGGLVHPGGSLRLSCAASGFTFRSHSMNWVRQAPGKGLEWVSSISSDSTYTYYADSVKGRFTISRDNAKNSLYLQMNSLRAEDTAVYYCARSGGQWKYYDYWGQGTLVTVSSHHHHHH | – | – | binds | – |
| anti-GPRC5D scFv-BCMA ECD-His fusion protein, construct 539 (other, scFv of construct 525 - G4Sx3 linker - BCMA ECD - His; Tested as HEK supernatant; also called A539; anti-GPRC5D-BCMA fusion protein) QSVVTQPPSMSAAPGQQVTISCSGGNSNIERNYVSWYLQLPGTAPKLVIFDNDRRPSGIPDRFSGSKSGTSATLGITGLQTGDEADYYCGTWDSSLRGWVFGGGTKLTVLGSRGGGGSGGGGSGGGGSLEMAEVQLVESGGGLIQPGGSLRLSCAASGFTFSNYAMNWVRQAPGKGLEWVSTINGRGSSTIYADSVKGRFTISRDNSKNTLYLQMNSLRAEDTATYYCARYISRGLGDSWGQGTLVTVSSGGGGSGGGGSGGGGSMLQMAGQCSQNEYFDSLLHACIPCQLRCSSNTPPLTCQRYCNASVTNSVKGTNAHHHHHH | 0.0193 µg/mL and 0.572 nM | 0.00669 µg/mL and 0.198 nM | – | – |
